Experimental data reported in article PMC7335187 (2020).

B1: Atg40^234–252 peptide [S. cerevisiae] / Atg8 (1-116) K26P [S. cerevisiae] (parent complex)
chain 1: TSTEFPNDYDFMEDILDET
chain 2: MKSTFKSEYPFEKRKAESERIADRFPNRIPVICEKAEKSDIPEIDKRKYLVPADLTVGQFVYVIRKRIMLPPEKAIFIFVNDTLPPTAALMSAIYQEHKDKDGFLYVTYSGENTFG

Variants of: B1
Assay: ITC

Row | Variant | Kd [µM]
1 | chain 1 F5A | 4.31
2 | chain 1 Y9A | 32.7

Variants of: B1
Assay: ITC
Remark: another data set of the same source

Row | Variant | Kd [µM]
3 | chain 2 R67A | 24.8
